In patent publication US11479580B2, “Polypeptide expressed in the stratum corneum and use thereof” (CENTRE NATIONAL DE LA RECHERCHE SCIENTIFIQUE—CNRS, priority 2010, dated 2022):

T1: transglutaminase 3 (Homo sapiens, UniProt Q08188)
T1 construct: purchased R&D Systems
T1 sequence (Q08188 1-693): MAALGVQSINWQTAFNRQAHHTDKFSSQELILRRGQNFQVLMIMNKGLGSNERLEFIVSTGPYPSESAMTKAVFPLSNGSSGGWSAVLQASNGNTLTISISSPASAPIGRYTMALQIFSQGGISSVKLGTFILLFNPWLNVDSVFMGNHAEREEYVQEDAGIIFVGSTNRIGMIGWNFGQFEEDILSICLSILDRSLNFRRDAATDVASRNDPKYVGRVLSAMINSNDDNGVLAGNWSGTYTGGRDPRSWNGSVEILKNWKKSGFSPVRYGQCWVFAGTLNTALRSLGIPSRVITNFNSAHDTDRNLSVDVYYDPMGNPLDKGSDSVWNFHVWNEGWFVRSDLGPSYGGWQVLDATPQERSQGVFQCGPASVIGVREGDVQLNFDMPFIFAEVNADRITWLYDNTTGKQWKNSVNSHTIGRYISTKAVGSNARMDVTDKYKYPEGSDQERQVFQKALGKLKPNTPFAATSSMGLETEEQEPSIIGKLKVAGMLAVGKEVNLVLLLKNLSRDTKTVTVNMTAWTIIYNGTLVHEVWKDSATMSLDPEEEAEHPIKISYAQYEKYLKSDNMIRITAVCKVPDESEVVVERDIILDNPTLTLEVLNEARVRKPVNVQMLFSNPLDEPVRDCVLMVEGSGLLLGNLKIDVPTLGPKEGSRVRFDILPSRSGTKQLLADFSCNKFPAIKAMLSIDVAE

T2: transglutaminase 2 (UniProt P08587)
T2 construct: transglutaminase purified from guinea pig liver; purchased Sigma T5398; host or cells: guinea pig liver
T2 sequence (P08587 1-690): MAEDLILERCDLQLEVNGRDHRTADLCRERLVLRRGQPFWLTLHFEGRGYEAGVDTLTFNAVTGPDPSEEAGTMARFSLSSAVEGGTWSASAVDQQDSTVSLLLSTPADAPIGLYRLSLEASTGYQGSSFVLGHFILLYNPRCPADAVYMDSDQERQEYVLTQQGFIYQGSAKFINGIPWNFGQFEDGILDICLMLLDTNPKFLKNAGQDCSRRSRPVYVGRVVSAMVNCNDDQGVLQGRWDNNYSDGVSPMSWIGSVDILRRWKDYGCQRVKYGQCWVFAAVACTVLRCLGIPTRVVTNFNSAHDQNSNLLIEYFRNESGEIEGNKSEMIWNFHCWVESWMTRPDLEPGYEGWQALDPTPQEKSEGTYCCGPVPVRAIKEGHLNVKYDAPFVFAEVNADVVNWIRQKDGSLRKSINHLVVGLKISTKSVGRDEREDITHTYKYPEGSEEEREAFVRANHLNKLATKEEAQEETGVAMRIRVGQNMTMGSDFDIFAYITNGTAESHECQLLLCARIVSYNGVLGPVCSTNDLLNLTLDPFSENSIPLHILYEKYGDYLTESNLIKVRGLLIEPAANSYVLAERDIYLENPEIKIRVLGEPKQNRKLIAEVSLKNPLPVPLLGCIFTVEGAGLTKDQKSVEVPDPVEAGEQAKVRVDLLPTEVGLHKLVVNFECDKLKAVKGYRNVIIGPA

B1: LCE6A-His: recombinant LCE6A possessing a C-terminal histidine tag (protein, UniProt A0A183 1-80, looked up)
Late cornified envelope …: MSQQKQQSWKPPNVPKCSPPQRSNPCLAPYSTPCGAPHSEGCHSSSQRPEVQKPRRARQKLRCLSRGTTYHCKEEECEGD
modifications: His tag
B2: LCE6A: polypeptide of 80 amino acids of the Late Cornified Envelope family, expressed in the epidermis (protein, listed as Homo sapiens)
chain: B1 Late cornified envelope …

Columns and labels:
transglutaminase 3 = molecular target: T1, transglutaminase 3; assay: In-vitro transglutaminase 3 binding assay (TGM3); format: biochemical
Protocol: A binding assay of LCE6A by transglutaminase 3 (human recombinant transglutaminase 3, R&D Systems) was performed in vitro. These assays are carried out according to the same experimental protocol as that described in example 4 paragraph 2 with transglutaminase 2.
(§1) In a first experiment, the applicant tested the capacity of TGM3 to form bridges between LCE-His and monodansyl cadaverine (MDC). For this, TGM3 (10 ng/μL) was incubated in the presence of 0.35 μg of LCE6A-His in solution in a buffer 50 mM Tris, 100 mM DTT, pH 7.4, with addition of 10 mM CaCl2 and 500 μM MDC (Fluka). After incubation for 2 h or 18 h at 37° C., the reaction is stopped by adding EDTA to final 25 mM. The negative control corresponds to the same experiment performed in the absence of CaCl2 and in the presence of 100 mM of ETDA after incubation for 18 h. The reaction product is separated by SDS-PAGE 15%, then visualized by illumination with UV.
In a second experiment, the applicant tested the capacity of TGM3 to form bridges of LCE6A with itself. For this, TGM3 (10 ng/μL) was incubated in the presence of 0.35 μg of LCE6A-His in a buffer 50 mM Tris, 100 mM DTT, pH 7.4, with addition of 10 mM CaCl2. After incubation for 2 h or 18 h at 37° C., the reaction is stopped by adding EDTA to final 25 mM. The negative control corresponds to the same experiment performed in the absence of CaCl2 and in the presence of 100 mM of ETDA after incubation for 18 h. The reaction product is separated by SDS-PAGE 15% and transferred onto a nitrocellulose membrane. The intermolecular bonds are visualized by Western Blot as described above with an anti-His antibody (mouse monoclonal IgG1 “Tetra-His antibody”, Qiagen).

transglutaminase 2 = molecular target: T2, transglutaminase 2; assay: In-vitro transglutaminase 2 binding assay (TGM2); format: biochemical, guinea pig
Protocol: A binding assay of LCE6A by transglutaminase 2 (transglutaminase purified from guinea pig liver, Sigma T5398) was performed in vitro.
as §1, with “capacity of TGM2 to form” for “capacity of TGM3 to form”, “LCE-His and a molecule bearing an amine bond, monodansyl cadaverine” for “LCE-His and monodansyl cadaverine”, “For this, TGM2 (10 ng/μL)” for “For this, TGM3 (10 ng/μL)”
In a second experiment, the applicant also tested the capacity of TGM2 to form bridges of LCE6A with itself. For this, TGM2 (10 ng/μL) was incubated in the presence of 0.35 μg of LCE6A-His in a buffer 50 mM Tris, 100 mM DTT, pH 7.4, with addition of 10 mM CaCl2. After incubation for 2 h or 18 h at 37° C., the reaction is stopped by adding EDTA to final 25 mM. The negative control corresponds to the same experiment performed in the absence of CaCl2 and in the presence of 100 mM of ETDA after incubation for 18 h. The reaction product is separated by SDS-PAGE 15% and transferred onto a nitrocellulose membrane. The intermolecular bonds are visualized by Western Blot as described above with an anti-His antibody (mouse monoclonal IgG1 “Tetra-His antibody”, Qiagen).

[1] = 100 mM EDTA, absence of calcium, 18 h
[2] = absence of calcium, 100 mM EDTA

Molecule	capacity of TGM3 to form bridges between LCE-His and MDC, fluorescent bands, negative control (transglutaminase 3; [1])	capacity of TGM3 to form bridges between LCE-His and monodansyl cadaverine (MDC), fluorescent bands after SDS-PAGE under UV (transglutaminase 3; TGM3 10 ng/μL, 10 mM CaCl2, 500 μM MDC, starting from 2 h of incubation at 37° C.)	capacity of TGM3 to form bridges of LCE6A with itself, Western Blot with anti-His antibody (transglutaminase 3; TGM3 10 ng/μL, 10 mM CaCl2, 2 h or 18 h at 37° C.)	capacity of TGM3 to form bridges of LCE6A with itself, Western Blot, negative control (transglutaminase 3; [2])	capacity of TGM2 to form bridges between LCE-His and MDC, fluorescent bands, negative control (transglutaminase 2; [1])	capacity of TGM2 to form bridges between LCE-His and monodansyl cadaverine (MDC), fluorescent bands after SDS-PAGE under UV (transglutaminase 2; TGM2 10 ng/μL, 10 mM CaCl2, 500 μM MDC, starting from 2 h of incubation at 37° C.)	capacity of TGM2 to form bridges of LCE6A with itself, Western Blot with anti-His antibody (transglutaminase 2; TGM2 10 ng/μL, 10 mM CaCl2, 2 h or 18 h at 37° C.)	capacity of TGM2 to form bridges of LCE6A with itself, Western Blot, negative control (transglutaminase 2; [2])	substrate of transglutaminase 3 (conclusion) (transglutaminase 3)	substrate of transglutaminase 2 (conclusion) (transglutaminase 2)
B1	No fluorescent band, apart from that corresponding to the free MDC, is detected	several fluorescent bands were detected	several bands of higher molecular weight migrating to a size equivalent to dimers or multimers of LCE6A-His	Only the band corresponding to monomeric LCE6A-His is detected	No fluorescent band, apart from that corresponding to the free MDC, is detected	several fluorescent bands were detected	several bands of higher molecular weight migrating to a size equivalent to dimers or multimers of LCE6A-His	Only the band corresponding to monomeric LCE6A-His is detected	–	–
B2	–	–	–	–	–	–	–	–	substrate of transglutaminase 3	substrate of transglutaminase 2
